Assay: yeast display, Sf9 membrane polyspecificity reagent, FACS + sequencing; frameworks hold sequencing errors
In short: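 A synthetic nanobody library was expressed on Saccharomyces cerevisiae BJ5465 by galactose induction for 36–48 hours. The library was stained for 1 hour at 4 °C with 10% biotinylated, detergent-solubilized Sf9 membrane reagent and enriched with streptavidin microbeads before FACS. Low and high (top ~1%) gates were set on anti-HA fluorescence for expression and streptavidin fluorescence for reagent binding, and each polyreactivity label reflects the gate of origin.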

Sequence	polyreactivity (PSR sort gate)
QVQLVESGGGLVQAGGSLRLSCAASGRTFNHYAMGLYRQAPGKERELVAGITISGGSTYYADSVKGRFTISRDNAKNTVYLQMNSLKPEDTAVYYCNAVYEYYRHSKWTMDYWGQGTQVTVSS	low polyreactivity
QVQLVESGGCLDQAGGSLRLSWDASGRTFDFNAIGWYRQAPGKERELVAAITHSAGRTYYADSVKGRFTLSRDIAKNTVYLQMNSLKREDTAVYYCATRYYNYARTSYGYWGQGTQVTVSS	high polyreactivity
QVQLVESGGGLVQAGGSLRLSCAASGRIGYYAMGWYRQAPGKERELVATISRGGSTKYADSVKGRFTISRDNAKNTVYLQMNSLKPEDTAVYYCAAARAPRYDYWGQGTQVTVSS	high polyreactivity
QVQLVESGGGLVQAGGSLRLSCAASGSIFFYYTMGWYRQAPGKERELVAAISVGGSTYYADSVKGRFTISRDNAKNTVYLQMNSLKPEDTAVYYCNAVPAKGYVTVVRYYYWGQGTQVTVSS	low polyreactivity
QVQLVESGVGFVQAGGSLRLSCAASGRIFGYYMGWYIQAPGKERELVAGISKRGTRTRYADSVKGRFTISRDNAKNTVFLQMNSLKPEDTAVYYCNADYYVSNMDYWGQGTQVTVSS	high polyreactivity
QVQLVESGGGLVQAGGSLRLSCAASGSTFEQYAMGWYRQAPGKERELVAAISGSGTRTYYADSVKGRFTISRDNAKNTVYLQMNSLKPEDTAVYYCAARFSYPAIHQAYYHWGQGTQVTVSS	high polyreactivity
QVQLVESGGGLVQAGGSLRLSCAASGFTFRRYAMGWYRQAPGKERELVAAINWNGDSTYYADSVKGRFTISRDNAKNTVYLQMNSVKPEDTAVYYCATSDYYYDYWGQGTQVTVSS	high polyreactivity
QVQLVESGGGLVQAGGSLRLSCAASGIIFNYNAMGWYRQAPGKERELVATISSGDSTNYADSVKGRFTISRDNAKNTVYLQMNSLKPEDTAVYYCAAESPSVFDGYAQLYIILEDYWGQGTQVTVSS	low polyreactivity
QVQLVESGGGLVQAGGSLRLSCAASGSTLVSNAMGWYIQAPGKEREFVAAINSSGSRTYYADSVKGRFTISRDNANNTVYLQMNSLKPEDTAVYYCAAGYWNDFDWGQVTQVTVSS	low polyreactivity
QVQLVESGGGLVQAGGSLRLSCAASGSTFDYYAMGWSRQAPGKERELVAGITGGGSTYYADSVKGRFTISRDNAKNTVYLQMNSLKPEDTAVYYCNAGPALRYDYWGQGTQVTVSS	low polyreactivity
QVQLVESGGGLVQAGGSLRLSCAASGRTFYFYVKGWYRQAPAKERELVARISWSGGSTYYADSVKGRFTISRDNAKNTVYLQMNSLKPEDTAVYYCARQYIYPSSGEYDSWGQGTQVTVSS	low polyreactivity
QVQLVESGGGLVQAGGRLRLSCAASGSISWVYAMGWYRQAPGTERELVADITDSGDSTYYADSVKGRFTISRDNAKNTVYLQMHSLKPEDTAVYYSAAPGSRHYYIYWPYNYWGQGTQVTVSS	low polyreactivity
QVQLVESGGGLVQAGGSLRLICAASGSTFHTYAMGWYRQAPGKERELVATITWDGGRTYYADSVKGRFTISRDNAKNTVYLQMNSLKPEDPAVYYCAADYWSIEMDYWGQGTQVTVSS	low polyreactivity
QVQLVESGGGLVQAGCSLRLSCAASGRTFGTYTKGWYRQAPGKERELVAAIYTRDGSTYYADSVKGRFSISRDNAKNTVYLQMNSLKPDDTAFYYCNAVVRYYDWGYWDYDYWGQGTQVTVSS	low polyreactivity
QVQLVESGGVLVQAGGSLRLSCAASGRTIWYYAMGWYRQAPGKERELVASITRSGGTTYADSVKGRFTISRDNAKNTVYLQMNSLKPEDTAVYYCAATRPRIPVYQNNYGYWGQGTQLTVSS	high polyreactivity
QVQLVESGGGLVQAGGSLRLSCAASGSTFVKNVMGWYRQAPGKERELVAGITRGGSTYYADSVKGRFTISRDNAKNTVYLQMNSLKPEDTAVYYCAAARWSQYRTWMNYWGQGTQVTVSS	high polyreactivity
QVQLVESGGGLVQAGGSLRLSCAASGNTFYLYAMGWYRKAPGKERELVASITGGTRTNYADSVKGRFTISRDNAKNTVYLQMNSLKPEDTAVYYCAVRYYWRRMNYWGQGTQVTVSS	high polyreactivity
QVQLVESGGGLVQAGGSLRLSCAASGFTFLAYSMGWYRQAPGKERELVAAIRWSGRRTYYADSVKGRFTISRDNAKNTVYLQMNSLKPEDTAVYYCAADTRRVREYNYWGQGTQVTVSS	low polyreactivity
QVQLVESGGCLVQAGGSLRLSCAASGNIIVGNDMGWYRQAPGKERELGAAISSGDTTSYADSVKGRFTISRDNAKNTVFLQMISLKPEDTAVYYCAAGFTYPYDYWGQGTQVTVSS	low polyreactivity
QVQLVESGGGLVQAGGSLRLSCAASGRIFNAYAMGWYRQAPGKERELVATISWRTGSTYYADSVKGRFTISRDNAKNTVYLQINSLKPEDTAVYYCNAKVGSYGAQGYRFAYNYWGQGTQVTVSS	high polyreactivity
QVQLVESGGGLVQAGGSLRLSCAASGSTFTQNAMGWYRQAPGKERELVAAIDRRGGSTYYADSVKGRFTISRDNAKNTVYLQMNSLKPEDTAVYYCAASFSYNRPKRFTHNYEYWGQGTQVTVSS	low polyreactivity
QVQLEESGGGLVQAGGSLRLICAASGIIFLFYALGWYRQAPGKERELVASITWSGGSTYYADSVKGRFTISRDNAKNTVYLQMNSLKPEDTAVYYCAASVKIISYLVHSEFLGGELDYWGQGTHVTVSS	low polyreactivity

Sequence	polyreactivity (PSR sort gate)
QVQLVESGGGLVQAGGSLRLSCAASGRTFNYYNMGWYRQAPGKARELVAAISRGGTTYYADSVKGRFTISRDNAKKTVYLQMNSLKPEDTAVYYCAVAYAPRVQTVWSYVSGSTYYSSGQGTQVTVSS	high polyreactivity
QDQLVDSGGGLVQAGGSLRLSCAASGLSFDLYDMGWYRQAPGKERELVAAIDWSATRTYYADSVKGRFTISRDNAKNTVYLQMNSLKPEDPAVYYCNAEAVYEYWIYDYWGQGTQVTLSS	high polyreactivity
QVQLVESGGGLVQAGGSLRLSCADSGRTFKYYAMGWYRQAPGKARELVAAIRSTGGSKYYADSVKGRFTISRDNAKNTVYLQMNSLKPEDTAVYYCNARRYPRYVFSRYDYWGQGTQVTVSS	high polyreactivity
QVQLVESGGGLVHAGGSLRLSCAASARIFIAYMAWYRQAPGKERELVAAIDSGASTYYADSVKGRFTISRDNANNTVYLQMNSLKPEDTAVYYCAADVVYDYGGMDYWGQGTQVTVSS	low polyreactivity
QVQLVETGGGLVQAGGSLRISCAASGRIFGWYAMGWYRQAPGKERELVAGINYGGGRTYYADSVKGRFTISRDNAKNTVYLQMNSLKPEDTAVYYCAAGISGHYYWGQGTQVTVSS	high polyreactivity
QVQLVESGGGLVQAGGSLRLSCAASGSIFWLYAMGWYRQAPGKERELVAAITWSGGRTYYADSVKGRFTISRDNAKNTVYLQMNSLKPEDTAVYYCARRQWPWYSNPARGGKYDYWGQGTQVTVSS	low polyreactivity
QGQLVESGGGLVQAGGSLRLSCAASGRTFKYNVMGWYRQAPGKERELVAAISSGGGTNYADSVKGRFTISRDNAKNTVDLQMNSLKPEDTAVYYCAAKYAWRLLEMYYWGQGTQVTVSS	low polyreactivity
LVQLVESGGGLVQAGGSLRLSCAASGSICNANAMGWYRQAPGKERELVAGIRSGSSTNYADSVKGRVTISRDNAKNTVYLQMNSLKPEDTPVYYCATEGYWVYGFDDEYWGQGTQVTVSS	low polyreactivity
QVQLEESGGGLVQAGGSLRLSCAASGFTFRYYAMGRYRQAPGKVRELVAVISRTGGSTNFADSVKGRFTISRDNAKKTVYLQMNSLKPEDTAVYYCNAVARYQTKYRYEYWGQGTQETVSS	high polyreactivity
QVQLVESGGGLVQAGGSLRLSCEASGSTFLRNAMGWYRQAPGKKGSWVATISYAGDSTYYADSVKGRFTLSRDNAKNTVYLQMNSLKPEDTAVYYCAASYSLTFWDKDDYWGQGTQVTVSS	low polyreactivity
QVQLVESGGGLVQAGGSLRLSCAASGLIFDPNTMGWYRQAPGKERELVAAISSGGDTNYADSVKGRFTISRDNAKNTVYLQMNSLKPEDTAVYYCATDIRFHDPSEYEGVDFEFWGQGTQVTVSS	low polyreactivity
QVHLVESGGGLVQAGGSLRLSCAASGFTFKDYAMGWYRQAPGKHTELVAAISYSGGSTYYADSVKGRFTISRDNAKNTVYLQMYSLKPEDTAVYYCNKGYPYVAYDYWGQGTQVTVSS	high polyreactivity
QVQLVDSGGGLVQAGGSLRLSCAASGITFNLNVMGWYRQAPGKERELVAAISRSGGRTYYADSVKGRFTISRDNAKNTVYLQMNSLKPEDTAVYYCDALSDRSSVPGDYWGQGTQVTVSS	high polyreactivity
QVHLVESGGGLVQAGGSLRLSCAASGSTFRIYSMGWYRQAPGKERELVAGITGNGGSTRYADSVKGRFTISRDNAKNTVYLQMNSLKPEDTAVYYCAARWTRQRYRTSYYSWGQGTQVTVSS	high polyreactivity
QVQLVESGGGLVQAGGSLRLSCAPSGITLDSNAMGWYRQARGKERELVAAINWSTGSTYYADSVKGRFTISRDNAKNTVYLQMNSLKPEDTAVYYCAVDYRYGYFVYVHYEYWGQGTQETVSS	high polyreactivity
QVQLVESGGGLVQAGGSLRLTCAASGFTINFYAMGGYRQAPGKERELVAAITASGGGSTYYADSVKGRFTISRDNAKNTVYLQMNSLKPEDTAVYYCNADYTGSFYTYDYWGQGTQVTVSS	low polyreactivity
QVQLVESGGGLVQAGGSLRLSCAASGLTFKFNAMGWYIQAPGKERELVADISFGGDDTYYSDSVKGRFTISRDNAKNTVYLQMNSQKPEDNAVYYCAAEYDTWGYSGRDYWGQGTQVTVSS	low polyreactivity
QVQLVESGGGLVQAGGSLRLSCAASGFIFDYNAMGWYRQAPGKERELVAAISISGGGTYYADSVKGRFTISRDNAKNTVYLQMNSLKPEDTAVYYCATAGRYDAYDYWGQGTQVTVSS	low polyreactivity
QVQLVESGGGLVQAGGSLRLSCAASGRIFVTYAMGWYRQAPGKERELVAAIPWDGDSTYYADSVKGRFTISRDNAKNTVYLQMNSLKPEDTAVYYCNAKKFNSHVELGYDYWGQGTQVTVSS	low polyreactivity
QVQLVESGGGLVQAGGSLRLSCAASGSTYDDNAMGWYRQAPRKERELVAGISTNGGSTSYADSVKGRFTISRDNAKNTVYLQMNSLYPEDTAVYYCATGLYVQFDYWGQGTQVTVSS	low polyreactivity
QVQHVESGRGLVQAGGSLRLSCAASGRIFQYYTMGRYRQAPGKERELVAAISRSGSSTYYADSVKGRFTISRDNAKNTVYLQMNSLKPEDTAVYYCAAVSEYYKGYDYWGQGTQVTVSS	high polyreactivity

From the nanobody polyreactivity screen of Harvey et al. (2022)
